This is an account of results in PMC4931344, “The FNIP co-chaperones decelerate the Hsp90 chaperone cycle and enhance drug binding” (Nature Communications, 2016).

Assay [1] addresses FNIP1-D–His6 labelled with Texas Red Maleimide (UniProt Q8TF40). Briefly: fluorescence polarisation; fluorescence anisotropy; 1 μM Texas Red-labelled FNIP1-D, Hsp90α titrated; 50 mM Tris pH 7.2, 150 mM NaCl, 1 mM TCEP, 4 mM MgCl2, with or without 1 mM ATP, ADP or AMPPNP; single-site binding equation.
Assay [2] addresses Hsp90α–FLAG full-length (wild type) (human) (UniProt P07900).
Assay [3] has as its target T1, FLAG–FNIP1 (bacterially expressed and purified) (UniProt Q8TF40 1-1166).
T1 construct: FNIP1; bacterial expression from pRSET-A; also called recombinant FNIP1; source: bacterially expressed and purified (a small amount)
T1 sequence (looked up): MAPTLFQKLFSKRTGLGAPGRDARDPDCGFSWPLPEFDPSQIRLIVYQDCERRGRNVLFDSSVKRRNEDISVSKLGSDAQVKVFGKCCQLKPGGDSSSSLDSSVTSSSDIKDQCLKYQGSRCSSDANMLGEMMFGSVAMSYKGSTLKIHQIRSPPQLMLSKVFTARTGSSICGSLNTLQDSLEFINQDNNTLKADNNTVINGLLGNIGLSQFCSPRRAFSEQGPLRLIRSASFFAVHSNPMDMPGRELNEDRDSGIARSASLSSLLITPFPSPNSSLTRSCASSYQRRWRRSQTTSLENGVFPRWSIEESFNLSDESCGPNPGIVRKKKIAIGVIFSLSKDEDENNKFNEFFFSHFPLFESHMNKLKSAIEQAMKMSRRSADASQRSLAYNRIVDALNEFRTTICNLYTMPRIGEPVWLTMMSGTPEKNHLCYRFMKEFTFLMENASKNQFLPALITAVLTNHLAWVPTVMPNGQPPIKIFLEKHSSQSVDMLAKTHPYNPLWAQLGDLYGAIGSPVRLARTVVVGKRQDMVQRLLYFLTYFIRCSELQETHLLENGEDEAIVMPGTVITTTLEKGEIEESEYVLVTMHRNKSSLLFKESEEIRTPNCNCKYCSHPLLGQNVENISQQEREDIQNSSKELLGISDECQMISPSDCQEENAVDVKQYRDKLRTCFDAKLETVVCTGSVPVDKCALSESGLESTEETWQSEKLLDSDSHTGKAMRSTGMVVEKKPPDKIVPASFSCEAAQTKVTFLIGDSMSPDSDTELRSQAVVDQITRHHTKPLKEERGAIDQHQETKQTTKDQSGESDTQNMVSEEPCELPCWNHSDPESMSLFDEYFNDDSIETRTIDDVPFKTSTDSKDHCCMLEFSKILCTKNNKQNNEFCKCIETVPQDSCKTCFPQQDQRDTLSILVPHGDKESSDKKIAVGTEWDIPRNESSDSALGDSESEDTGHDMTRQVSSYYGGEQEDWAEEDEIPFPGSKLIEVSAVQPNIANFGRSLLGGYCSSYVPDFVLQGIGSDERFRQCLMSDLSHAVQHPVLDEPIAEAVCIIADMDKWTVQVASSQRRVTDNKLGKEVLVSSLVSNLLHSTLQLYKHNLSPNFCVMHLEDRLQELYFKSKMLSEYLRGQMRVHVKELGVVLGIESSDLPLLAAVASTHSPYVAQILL
Briefly: pull-down; His6-tagged protein bound to Ni-NTA agarose, incubated with 10 ng pure FLAG–FNIP1; immunoblot. To be noted: both partners purified. Background: A western blot detects proteins with antibodies after separation by electrophoresis.

Broadly, the Kd is the constant that tells how readily two partners part at equilibrium. As to “Hsp90α–His6 (from UniProt P07900 1-732) (natural protein)”, in assay [1], the Kd came to 1.3 µM.

B1: HA–FNIP2 (natural protein)
chain: MAPTLLQKLFNKRGSSGSSAAASAQGRAPKEGPAFSWSCSEFDLNEIRLIVYQDCDRRGRQVLFDSKAVQKIEEVTAQKTEDVPIKISAKCCQGSSSVSSSSSSSISSHSSSGGSSHHAKEQLPKYQYTRPASDVNMLGEMMFGSVAMSYKGSTLKIHYIRSPPQLMISKVFSARMGSFCGSTNNLQDSFEYINQDPNLGKLNTNQNSLGPCRTGSNLAHSTPVDMPSRGQNEDRDSGIARSASLSSLLITPFPSPSSSTSSSSSYQRRWLRSQTTSLENGIIPRRSTDETFSLAEETCSSNPAMVRRKKIAISIIFSLCEKEEAQRNFQDFFFSHFPLFESHMNRLKSAIEKAMISCRKIAESSLRVQFYVSRLMEALGEFRGTIWNLYSVPRIAEPVWLTMMSGTLEKNQLCQRFLKEFTLLIEQINKNQFFAALLTAVLTYHLAWVPTVMPVDHPPIKAFSEKRTSQSVNMLAKTHPYNPLWAQLGDLYGAIGSPVRLTRTVVVGKQKDLVQRILYVLTYFLRCSELQENQLTWSGNHGEGDQVLNGSKIITALEKGEVEESEYVVITVRNEPALVPPILPPTAAERHNPWPTGFPECPEGTDSRDLGLKPDKEANRRPEQGSEACSAGCLGPASDASWKPQNAFCGDEKNKEAPQDGSSRLPSCEVLGAGMKMDQQAVCELLKVEMPTRLPDRSVAWPCPDRHLREKPSLEKVTFQIGSFASPESDFESRMKKMEERVKACGPSLEASEAADVAQDPQVSRSPFKPGFQENVCCPQNRLSEGDEGESDKGFAEDRGSRNDMAADIAGQLSHAADLGTASHGAGGTGGRRLEATRGLYVKAAEGPVLEPVAPRCVQRGPGLVAGANIPCGDDNKKANFRTEGDIPRNESSDSALGDSDDEACASAMLDLGHGGDRTGGSLEVELPLPRSQSISTQNVRNFGRSLLAGYCPTYMPDLVLHGTGSDEKLKQCLVADLVHTVHHPVLDEPIAEAVCIIADTDKWSVQVATSQRKVTDNMKLGQDVLVSSQVSSLLQSILQLYKLHLPADFCIMHLEDRLQEMYLKSKMLSEYLRGHTRVHVKELGVVLGIESNDLPLLTAIASTHSPYVAQILL
For B1, in assay [2], the inhibition of the in vitro ATPase activity of isolated Hsp90α (PiPer Phosphate Assay; Hsp90α 291.5 nM) by 1.6 μM FNIP2 came to 8 fold.

B2: FLCN–His6 (natural protein, UniProt Q8NFG4 1-579, looked up)
chain: MNAIVALCHFCELHGPRTLFCTEVLHAPLPQGDGNEDSPGQGEQAEEEEGGIQMNSRMRAHSPAEGASVESSSPGPKKSDMCEGCRSLAAGHPGYISHDKETSIKYVSHQHPSHPQLFSIVRQACVRSLSCEVCPGREGPIFFGDEQHGFVFSHTFFIKDSLARGFQRWYSIITIMMDRIYLINSWPFLLGKVRGIIDELQGKALKVFEAEQFGCPQRAQRMNTAFTPFLHQRNGNAARSLTSLTSDDNLWACLHTSFAWLLKACGSRLTEKLLEGAPTEDTLVQMEKLADLEEESESWDNSEAEEEEKAPVLPESTEGRELTQGPAESSSLSGCGSWQPRKLPVFKSLRHMRQVLGAPSFRMLAWHVLMGNQVIWKSRDVDLVQSAFEVLRTMLPVGCVRIIPYSSQYEEAYRCNFLGLSPHVQIPPHVLSSEFAVIVEVHAAARSTLHPVGCEDDQSLSKYEFVVTSGSPVAADRVGPTILNKIEAALTNQNLSVDVVDQCLVCLKEEWMNKVKVLFKFTKVDSRPKEDTQKLLSILGASEEDNVKLLKFWMTGLSKTYKSHLMSTVRSPTASESRN
notes: folliculin (FLCN), bacterially expressed; The name puts His6 behind the protein; source: bacterially expressed and purified; not shown: His6, N-terminal, kept
Regarding B2, the binding result in assay [3] is reported as “binds”.

B3: HA–FNIP1 (natural protein)
chain: MAPTLFQKLFSKRTGLGAPGRDARDPDCGFSWPLPEFDPSQIRLIVYQDCERRGRNVLFDSSVKRRNEDISVSKLGSDAQVKVFGKCCQLKPGGDSSSSLDSSVTSSSDIKDQCLKYQGSRCSSDANMLGEMMFGSVAMSYKGSTLKIHQIRSPPQLMLSKVFTARTGSSICGSLNTLQDSLEFINQDNNTLKADNNTVINGLLGNIGLSQFCSPRRAFSEQGPLRLIRSASFFAVHSNPMDMPGRELNEDRDSGIARSASLSSLLITPFPSPNSSLTRSCASSYQRRWRRSQTTSLENGVFPRWSIEESFNLSDESCGPNPGIVRKKKIAIGVIFSLSKDEDENNKFNEFFFSHFPLFESHMNKLKSAIEQAMKMSRRSADASQRSLAYNRIVDALNEFRTTICNLYTMPRIGEPVWLTMMSGTPEKNHLCYRFMKEFTFLMENASKNQFLPALITAVLTNHLAWVPTVMPNGQPPIKIFLEKHSSQSVDMLAKTHPYNPLWAQLGDLYGAIGSPVRLARTVVVGKRQDMVQRLLYFLTYFIRCSELQETHLLENGEDEAIVMPGTVITTTLEKGEIEESEYVLVTMHRNKSSLLFKESEEIRTPNCNCKYCSHPLLGQNVENISQQEREDIQNSSKELLGISDECQMISPSDCQEENAVDVKQYRDKLRTCFDAKLETVVCTGSVPVDKCALSESGLESTEETWQSEKLLDSDSHTGKAMRSTGMVVEKKPPDKIVPASFSCEAAQTKVTFLIGDSMSPDSDTELRSQAVVDQITRHHTKPLKEERGAIDQHQETKQTTKDQSGESDTQNMVSEEPCELPCWNHSDPESMSLFDEYFNDDSIETRTIDDVPFKTSTDSKDHCCMLEFSKILCTKNNKQNNEFCKCIETVPQDSCKTCFPQQDQRDTLSILVPHGDKESSDKKIAVGTEWDIPRNESSDSALGDSESEDTGHDMTRQVSSYYGGEQEDWAEEDEIPFPGSKLIEVSAVQPNIANFGRSLLGGYCSSYVPDFVLQGIGSDERFRQCLMSDLSHAVQHPVLDEPIAEAVCIIADMDKWTVQVASSQRRVTDNKLGKEVLVSSLVSNLLHSTLQLYKHNLSPNFCVMHLEDRLQELYFKSKMLSEYLRGQMRVHVKELGVVLGIESSDLPLLAAVASTHSPYVAQILL
In the case of B3, the inhibition of the in vitro ATPase activity of isolated Hsp90α (PiPer Phosphate Assay; Hsp90α 291.5 nM) by 200 nM FNIP1 (189.8 nM in the results) in assay [2] was found to be 50 fold.
